The values below come from publication PMC10769881, “Plasmid-encoded toxin defence mediates mutualistic microbial interactions” (Nature Microbiology, 2023).

One data set has as its system OCCCO. In words: purified protein. It counts as biochemical, Enterococcus faecalis. As to conditions: NAD+ close to saturation, 37 °C, pH of assay not told, kcat printed as Vmax per enzyme molecule, closely corresponding to kcat.
Data set [1] has as its system NC(=O)c1ccc[n+]([C@@H]2O[C@H](COP(=O)(O)OP(=O)(O)OC[C@H]3O[C@@H](n4cnc5c(N)ncnc54)[C@H](O)[C@@H]3O)[C@@H](O)[C@H]2O)c1. In words: purified protein. It counts as biochemical, Enterococcus faecalis. Conditions: 1,3-propanediol oxidation direction, 37 °C, 1,3-propanediol as co-substrate, its concentration and pH of assay not told, varied: cofactor.

What is called Km is the concentration of substrate that gives half-maximal velocity. A word on the kcat: it is the number of substrate molecules converted per active site and unit of time at saturation. Take “1,3-propanediol dehydrogenase (1,3-PD), rumen plasmid-encoded (Enterococcus faecalis)”: in the data set with OCCCO, the Michaelis constant (Km) came out at 17 ± 6 mM and the kcat was 0.183 ± 0.017 s⁻¹. In data set [1], the Km was 0.25 ± 0.04 mM.
